The labels stand for the following.
B1: Intersectin-1, residues 1156 to 1213; numbered along this chain, Q15811 (parent)
chain: AVCQVIGMYDYTAQNDDELAFNKGQIINVLNKEDPDWWKGEVNGQVGLFPSNYVKLTT
B2: POU domain, class 5, transcription factor 1, residues 134 to 212; numbered along this chain, Q01860 (parent)
chain: EESQDIKALQKELEQFAKLLKQKRITLGYTQADVGLTLGVLFGKVFSQTTICRFEALQLSFKNMCKLRPLLQKWVEEAD

± gives the uncertainty stated by the source.

One series covers variants of B1. Briefly: abundance fitness (aPCA) (normalised: wild type 0, dead -1); higher = more abundant; growth selection in yeast, the domain comes from the species named. The note with it: Homo sapiens.
V54R: the abundance fitness was -0.684 ± 0.094.
The same measure, in the same setting: next, V54S: -0.874 ± 0.12; V54E: -0.931 ± 0.33; V54T: -0.065 ± 0.14.
Still for that read-out and setting: the value for V54I was -0.773 ± 0.16.
Regarding V54G, the abundance fitness is -0.836 ± 0.12.
In the case of V54D, the abundance fitness is -0.943 ± 0.31.
In the case of V54L, the abundance fitness was -0.854 ± 0.14.
Same read-out and setting: the value for V54W was -0.762 ± 0.14; that for V54Y was -0.766 ± 0.26; that for V54M was -0.755 ± 0.27.
Still for that read-out and setting: the value for V54C was -0.367 ± 0.12; that for V54N was -0.758 ± 0.21; that for V54H was -0.767 ± 0.23.
Same read-out and setting: the value for V54Q was -0.904 ± 0.22; that for V54P was -0.842 ± 0.17.
Turning to V54F, the abundance fitness is -0.806 ± 0.25.
On the same count and under the same terms, next, V54A: -0.546 ± 0.11; V54K: -0.906 ± 0.24.
The same measure, in the same setting: next, T57R: -0.131 ± 0.078; T57H: -0.003 ± 0.14.
On the same count and under the same terms, next, T57L: -0.116 ± 0.11; T57F: 0.086 ± 0.15; T57C: -0.115 ± 0.12.
As to T57K, the abundance fitness is -0.024 ± 0.21.
Same read-out and setting: next, T57Y: -0.063 ± 0.15; T57M: -0.009 ± 0.15.
Still for that read-out and setting: next, T57Q: 0.028 ± 0.15; T57I: -0.13 ± 0.14.
Still for that read-out and setting: the value for T57E was -0.519 ± 0.16.
Consider T57N, for which the abundance fitness was -0.028 ± 0.17.
Still for that read-out and setting: the value for T57D was -0.055 ± 0.15.
The same measure, in the same setting: next, T57A: -0.059 ± 0.083; T57W: -0.167 ± 0.12.
Turning to T57V, the abundance fitness is -0.06 ± 0.089.
On the same count and under the same terms, the value for T57S was -0.174 ± 0.09; that for Y53F was -0.208 ± 0.15; that for Y53N was -0.54 ± 0.25.
On the same count and under the same terms, next, Y53E: -0.711 ± 0.2.
Turning to Y53M, the abundance fitness was determined as 0.12 ± 0.15.
On the same count and under the same terms, next, Y53A: 0.043 ± 0.093; Y53L: -0.155 ± 0.086.
On to Y53S, for which the abundance fitness was -0.426 ± 0.1.
On the same count and under the same terms, the value for Y53W was -0.255 ± 0.11; that for Y53Q was -0.224 ± 0.14; that for Y53V was -0.343 ± 0.089.
The same measure, in the same setting: next, Y53C: 0.034 ± 0.1.
Same read-out and setting: the value for Y53T was -0.11 ± 0.12.
Turning to Y53G, the abundance fitness was -0.601 ± 0.086.
Still for that read-out and setting: the value for Y53I was -0.239 ± 0.28.
As for Y53K, the abundance fitness stood at 0.085 ± 0.14.
Take Y53P: the abundance fitness is -0.726 ± 0.17.
Still for that read-out and setting: next, Y53H: -0.26 ± 0.2; Y53D: -0.834 ± 0.18; Y53R: -0.068 ± 0.078.
Same read-out and setting: next, L56M: -0.148 ± 0.12.
On the same count and under the same terms, the value for L56A was 0.08 ± 0.093; that for L56C was 0.266 ± 0.13; that for L56D was -0.106 ± 0.15.
For the variant L56Q, the abundance fitness was -0.151 ± 0.11.
The same measure, in the same setting: next, L56Y: -0.168 ± 0.22; L56E: 0.005 ± 0.13.
Same read-out and setting: next, L56F: -0.124 ± 0.16; L56H: -0.334 ± 0.24.
Same read-out and setting: the value for L56T was 0.081 ± 0.14.
In the case of L56W, the abundance fitness is -0.405 ± 0.11.
Still for that read-out and setting: next, L56S: 0.083 ± 0.087; L56I: 0.069 ± 0.2; L56P: -0.121 ± 0.14.
The same measure, in the same setting: next, L56N: -0.149 ± 0.22; L56V: 0.006 ± 0.094.
As to L56G, the abundance fitness was -0.102 ± 0.079.
Turning to L56R, the abundance fitness was -0.341 ± 0.083.
With T58N, the abundance fitness was -0.233 ± 0.26.
On the same count and under the same terms, the value for T58R was 0.062 ± 0.26; that for T58S was -0.144 ± 0.16; that for T58A was -0.315 ± 0.16.
Still for that read-out and setting: the value for T58L was -0.187 ± 0.41; that for T58V was -0.113 ± 0.32.
The same measure, in the same setting: the value for T58G was 0.053 ± 0.22.
With T58I, the abundance fitness was -0.587 ± 0.4.
Still for that read-out and setting: the value for T58P was -0.09 ± 0.2.
As for K55D, the abundance fitness is -0.513 ± 0.15.
On the same count and under the same terms, next, K55I: -0.325 ± 0.21; K55C: -0.098 ± 0.15; K55H: -0.431 ± 0.18.
The same measure, in the same setting: next, K55A: -0.146 ± 0.1; K55L: -0.318 ± 0.089.
K55R: the abundance fitness was determined as 0.067 ± 0.084.
The same measure, in the same setting: the value for K55Q was -0.177 ± 0.16; that for K55Y was -0.427 ± 0.15; that for K55M was 0.024 ± 0.16.
Turning to K55T, the abundance fitness is -0.225 ± 0.11.
The same measure, in the same setting: next, K55N: -0.456 ± 0.17; K55S: -0.004 ± 0.084.
On the same count and under the same terms, next, K55P: -0.797 ± 0.16; K55W: -0.678 ± 0.17.
Still for that read-out and setting: next, K55F: -0.614 ± 0.17.

The variants in the next series derive from B2. Described as above. The conditions noted are these: Homo sapiens.
As for V45S, the abundance fitness turned out to be 0.012 ± 0.077.
Same read-out and setting: next, V45N: 0.001 ± 0.25.
Still for that read-out and setting: next, V45C: -0.101 ± 0.093; V45F: -0.15 ± 0.17; V45A: 0.127 ± 0.049.
On the same count and under the same terms, next, Q22F: 0.56 ± 0.4; L41D: -0.244 ± 0.46.
On to L41Q, for which the abundance fitness was 0.048 ± 0.29.
Turning to N63R, the abundance fitness amounted to 0.037 ± 0.095.
The same measure, in the same setting: next, N63A: 0.045 ± 0.11; N63V: -0.305 ± 0.13; N63M: -0.088 ± 0.33.
Same read-out and setting: next, N63G: -0.314 ± 0.1.
Still for that read-out and setting: the value for N63K was 0.172 ± 0.23; that for R24S was -0.361 ± 0.18; that for E76P was -0.892 ± 0.39.
Consider E76A, for which the abundance fitness was -0.139 ± 0.13.
On the same count and under the same terms, next, E76D: 0.003 ± 0.19; E76M: -0.017 ± 0.22; E77W: 0.226 ± 0.076.
With E77G, the abundance fitness is -0.124 ± 0.079.
Regarding E77A, the abundance fitness was -0.124 ± 0.099.
With E77I, the abundance fitness is -0.079 ± 0.23.
For E77L, the abundance fitness was -0.124 ± 0.12.
The same measure, in the same setting: next, D33P: -0.227 ± 0.2; D33L: -0.563 ± 0.23.
The same measure, in the same setting: next, D33Q: 0.236 ± 0.13; Q48S: 0.208 ± 0.17.
Take Q48D: the abundance fitness came out at 0.164 ± 0.44.
Same read-out and setting: the value for Q48P was 0.097 ± 0.23; that for Q48G was 0.24 ± 0.076.
For S47F, the abundance fitness is -0.094 ± 0.29.
Same read-out and setting: the value for S47A was -0.379 ± 0.22; that for D5P was 0.062 ± 0.42.
As for Q31R, the abundance fitness is -0.469 ± 0.14.
The same measure, in the same setting: the value for Q31A was -0.103 ± 0.11; that for Q31K was -0.557 ± 0.34; that for L71R was -0.509 ± 0.11.
Consider L71F, for which the abundance fitness is -0.562 ± 0.29.
Turning to L71Y, the abundance fitness is -0.435 ± 0.28.
L71E: the abundance fitness is -0.344 ± 0.16.
As to L71C, the abundance fitness is -0.474 ± 0.2.
Regarding L71Q, the abundance fitness was -0.658 ± 0.27.
Same read-out and setting: next, T37A: 0.345 ± 0.074; T37H: 0.162 ± 0.2.
The same measure, in the same setting: the value for T37P was -0.621 ± 0.33.
Same read-out and setting: the value for R53Q was -0.074 ± 0.17; that for R53G was -0.421 ± 0.16; that for S3V was 0.323 ± 0.24.
Regarding V75K, the abundance fitness is -0.056 ± 0.31.
Same read-out and setting: next, V75W: -0.802 ± 0.39.
On to V75I, for which the abundance fitness stood at 0.056 ± 0.22.
On the same count and under the same terms, next, V75E: -0.353 ± 0.48; V75Q: -0.206 ± 0.34.
Still for that read-out and setting: next, R68Q: -0.384 ± 0.16.
The same measure, in the same setting: next, R68Y: 0.356 ± 0.19.
Consider L70T, for which the abundance fitness is -0.325 ± 0.23.
In the case of F61P, the abundance fitness is 0.202 ± 0.13.
With F61W, the abundance fitness is -0.035 ± 0.091.
On the same count and under the same terms, next, F61A: -0.147 ± 0.12.
Turning to F61V, the abundance fitness is 0.031 ± 0.097.
Same read-out and setting: the value for Q10T was -0.184 ± 0.18; that for Q10E was -0.354 ± 0.16.
The same measure, in the same setting: next, Q10H: -0.31 ± 0.49; Q10F: 0.117 ± 0.32.
Turning to Q10L, the abundance fitness was -0.214 ± 0.11.
The same measure, in the same setting: next, Q10M: -0.063 ± 0.16.
For K23L, the abundance fitness is -0.608 ± 0.37.
Turning to K23R, the abundance fitness was determined as 0.059 ± 0.12.

Source of the values: the Human Domainome abundance scans (Beltran et al. 2025).
